Laboratory results taken from article PMC7840905.

Assays:
[1] = molecular target: SARS-CoV-2 Nsp15 H250A (SARS-CoV-2); experiment: SEC
[2] = molecular target: SARS-CoV-2 Nsp15 H235A (SARS-CoV-2); experiment: cryo-EM structure
[3] = molecular target: SARS-CoV-2 Nsp15 H235A (SARS-CoV-2); experiment: SEC

SARS-CoV-2 Nsp15 H250A (enzyme)
stoichiometry N [1]: 6

SARS-CoV-2 Nsp15 H235A (enzyme)
stoichiometry N [2]: 6
stoichiometry N [3]: 6
